Article PMC11096414
Each block holds one binder with its values, some of them ahead of it.

Target: Flag-tagged MAVS wt, Q7Z434
Test: co-IP
Details: remark: other sources report otherwise

Flag-tagged MAVS wt, Q7Z434, sequence (Q7Z434 whole entry): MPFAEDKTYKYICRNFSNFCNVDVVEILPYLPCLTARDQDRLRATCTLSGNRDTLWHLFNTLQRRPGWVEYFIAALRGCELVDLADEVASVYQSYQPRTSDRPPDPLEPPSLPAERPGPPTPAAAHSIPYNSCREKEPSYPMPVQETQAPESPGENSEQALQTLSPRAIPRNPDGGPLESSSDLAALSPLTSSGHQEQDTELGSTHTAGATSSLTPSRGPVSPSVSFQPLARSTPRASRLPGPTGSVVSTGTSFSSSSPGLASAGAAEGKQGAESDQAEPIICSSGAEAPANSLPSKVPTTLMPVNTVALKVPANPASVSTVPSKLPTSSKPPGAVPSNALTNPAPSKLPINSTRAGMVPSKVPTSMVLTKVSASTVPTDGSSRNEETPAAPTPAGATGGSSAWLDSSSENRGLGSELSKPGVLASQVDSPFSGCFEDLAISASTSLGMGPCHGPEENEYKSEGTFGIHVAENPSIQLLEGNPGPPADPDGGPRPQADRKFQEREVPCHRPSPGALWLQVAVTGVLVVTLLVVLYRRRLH

fold reduction of the co-precipitate in the presence of 4-OI (against no 4-OI): 3.7 fold
B1: GFP-tagged TBK1, Q9UHD2 1-729 (enzyme)
chain: MQSTSNHLWLLSDILGQGATANVFRGRHKKTGDLFAIKVFNNISFLRPVDVQMREFEVLKKLNHKNIVKLFAIEEETTTRHKVLIMEFCPCGSLYTVLEEPSNAYGLPESEFLIVLRDVVGGMNHLRENGIVHRDIKPGNIMRVIGEDGQSVYKLTDFGAARELEDDEQFVSLYGTEEYLHPDMYERAVLRKDHQKKYGATVDLWSIGVTFYHAATGSLPFRPFEGPRRNKEVMYKIITGKPSGAISGVQKAENGPIDWSGDMPVSCSLSRGLQVLLTPVLANILEADQEKCWGFDQFFAETSDILHRMVIHVFSLQQMTAHKIYIHSYNTATIFHELVYKQTKIISSNQELIYEGRRLVLEPGRLAQHFPKTTEENPIFVVSREPLNTIGLIYEKISLPKVHPRYDLDGDASMAKAITGVVCYACRIASTLLLYQELMRKGIRWLIELIKDDYNETVHKKTEVVITLDFCIRNIEKTVKVYEKLMKINLEAAELGEISDIHTKLLRLSSSQGTIETSLQDIDSRLSPGGSLADAWAHQEGTHPKDRNVEKLQVLLNCMTEIYYQFKKDKAERRLAYNEEQIHKFDKQKLYYHATKAMTHFTDECVKKYEAFLNKSEEWIRKMLHLRKQLLSLTNQCFDIEEEVSKYQEYTNELQETLPQKMFTASSGIKHTMTPIYPSSNTLVEMTLGMKKLKEEMEGVVKELAENNHILERFGSLTMDGGLRNVDCL

fold reduction of the co-precipitate in the presence of 4-OI (against no 4-OI): 1.6 fold
B2: GFP-tagged RIG-I, O95786 1-925 (natural protein)
chain: MTTEQRRSLQAFQDYIRKTLDPTYILSYMAPWFREEEVQYIQAEKNNKGPMEAATLFLKFLLELQEEGWFRGFLDALDHAGYSGLYEAIESWDFKKIEKLEEYRLLLKRLQPEFKTRIIPTDIISDLSECLINQECEEILQICSTKGMMAGAEKLVECLLRSDKENWPKTLKLALEKERNKFSELWIVEKGIKDVETEDLEDKMETSDIQIFYQEDPECQNLSENSCPPSEVSDTNLYSPFKPRNYQLELALPAMKGKNTIICAPTGCGKTFVSLLICEHHLKKFPQGQKGKVVFFANQIPVYEQQKSVFSKYFERHGYRVTGISGATAENVPVEQIVENNDIIILTPQILVNNLKKGTIPSLSIFTLMIFDECHNTSKQHPYNMIMFNYLDQKLGGSSGPLPQVIGLTASVGVGDAKNTDEALDYICKLCASLDASVIATVKHNLEELEQVVYKPQKFFRKVESRISDKFKYIIAQLMRDTESLAKRICKDLENLSQIQNREFGTQKYEQWIVTVQKACMVFQMPDKDEESRICKALFLYTSHLRKYNDALIISEHARMKDALDYLKDFFSNVRAAGFDEIEQDLTQRFEEKLQELESVSRDPSNENPKLEDLCFILQEEYHLNPETITILFVKTRALVDALKNWIEGNPKLSFLKPGILTGRGKTNQNTGMTLPAQKCILDAFKASGDHNILIATSVADEGIDIAQCNLVILYEYVGNVIKMIQTRGRGRARGSKCFLLTSNAGVIEKEQINMYKEKMMNDSILRLQTWDEAVFREKILHIQTHEKFIRDSQEKPKPVPDKENKKLLCRKCKALACYTADVRVIEECHYTVLGDAFKECFVSRPHPKPKQFSSFEKRAKIFCARQNCSHDWGIHVKYKTFEIPVIKIESFVVEDIATGVQTLYSKWKDFHFEKIPFDPAEMSK
